Results as given in publication PMC10986514.

Each substance was assayed against SARS-CoV-2 RBD single mutant E484K (SARS-CoV-2) (UniProt P0DTC2) (assay: peptide or protein array).

With “Tri-TMV multimodular nanobody (Ty1, MR17-K99Y and VHH V modules)” as the substance, how does the percent decrease of the binding signal against wild-type RBD read?
Its percent decrease of the binding signal against wild-type RBD is 40%.

Which percent decrease of the binding signal against wild-type RBD does the source give for “Tri-TMH multimodular nanobody (Ty1, MR17-K99Y and H11-H4 modules) (VHH)” here?
The percent decrease of the binding signal against wild-type RBD was 60%.

For “Tri-Ty1 multimodular nanobody (three Ty1 modules) (VHH)”, which percent decrease of the binding signal against wild-type RBD is on record?
The percent decrease of the binding signal against wild-type RBD was 96%.
